The values that follow come from PMC9289880 (Journal of Medicinal Chemistry, 2022).

This test deals with KRAS^G12D (GDP) (UniProt P01116 1-189, G12D). Description: cell-based or functional assay.

Bridges are numbered along the chain shown (N, C = ends).

B1: peptide 2 (KRpep-2) (peptide)
peptide: Ac-RRCPLYISYDPVCRR-NH2
modifications: disulfide 3-13
As to B1, the “KRAS^G12D SOS GNE IC50 (TR-FRET, SOS-catalysed Bodipy-GDP/GTP exchange)” value was 54 nM.
